Test results taken from patent US20020031818A1 (published 2002).

Target: GST-Mdm2, wild type, bacterially expressed and purified (pGEX-4T-1) (human, UniProt Q00987 1-491)
Assay: cell-based or functional assay

Chain of GST-Mdm2, wild type, bacterially expressed and purified (pGEX-4T-1) (Q00987 whole entry): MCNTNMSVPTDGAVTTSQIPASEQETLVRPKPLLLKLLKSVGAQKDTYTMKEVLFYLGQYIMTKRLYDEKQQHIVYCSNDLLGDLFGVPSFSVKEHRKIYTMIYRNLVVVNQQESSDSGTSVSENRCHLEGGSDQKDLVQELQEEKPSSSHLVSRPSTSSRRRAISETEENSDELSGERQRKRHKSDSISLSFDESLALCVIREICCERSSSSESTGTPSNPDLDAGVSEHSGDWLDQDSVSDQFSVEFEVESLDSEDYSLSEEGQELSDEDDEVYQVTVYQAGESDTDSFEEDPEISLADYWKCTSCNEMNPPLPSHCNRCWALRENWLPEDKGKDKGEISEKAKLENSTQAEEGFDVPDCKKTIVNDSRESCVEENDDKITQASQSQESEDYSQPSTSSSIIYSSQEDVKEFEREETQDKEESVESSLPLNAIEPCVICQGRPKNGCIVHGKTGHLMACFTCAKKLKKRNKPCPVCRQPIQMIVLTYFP

B1: p19^ARF, wild type (other, UniProt Q64364 1-169, looked up)
chain: MGRRFLVTVRIQRAGRPLQERVFLVKFVRSRRPRTASCALAFVNMLLRLERILRRGPHRNPGPGDDDGQRSRSSSSAQLRCRFELRGPHYLLPPGARRSAGRLPGHAGGAARVRGSAGCARCLGSPAARLGPRAGTSRHRAIFAFRWVLFVFRWVVFVYRWERRPDRRA
Which “molar ratio required for inhibition of Mdm2 sumoylation” value does the source give for B1 here?
The value was ~1 molar ratio p19^ARF:Mdm2.
